# No end group written: not given here.
# T1: Mint1^WT C-terminal construct, amino acids 453-839 (rat, UniProt O35430 453-839)
# T1 sequence (looked up): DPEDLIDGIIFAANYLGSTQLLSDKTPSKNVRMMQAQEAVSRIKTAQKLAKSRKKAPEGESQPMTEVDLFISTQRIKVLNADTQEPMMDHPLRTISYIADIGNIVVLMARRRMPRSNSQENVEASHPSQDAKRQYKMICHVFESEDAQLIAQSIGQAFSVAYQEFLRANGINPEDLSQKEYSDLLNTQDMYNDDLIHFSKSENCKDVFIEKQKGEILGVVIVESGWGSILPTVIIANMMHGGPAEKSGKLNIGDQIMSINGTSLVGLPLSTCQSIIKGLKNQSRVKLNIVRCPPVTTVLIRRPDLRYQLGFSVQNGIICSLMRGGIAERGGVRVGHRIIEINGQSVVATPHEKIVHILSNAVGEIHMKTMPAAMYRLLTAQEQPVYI
# T2: Mint1^Y633A C-terminal construct, amino acids 453-839 (rat, UniProt O35430 453-839, Y633A)
# T2 sequence (looked up): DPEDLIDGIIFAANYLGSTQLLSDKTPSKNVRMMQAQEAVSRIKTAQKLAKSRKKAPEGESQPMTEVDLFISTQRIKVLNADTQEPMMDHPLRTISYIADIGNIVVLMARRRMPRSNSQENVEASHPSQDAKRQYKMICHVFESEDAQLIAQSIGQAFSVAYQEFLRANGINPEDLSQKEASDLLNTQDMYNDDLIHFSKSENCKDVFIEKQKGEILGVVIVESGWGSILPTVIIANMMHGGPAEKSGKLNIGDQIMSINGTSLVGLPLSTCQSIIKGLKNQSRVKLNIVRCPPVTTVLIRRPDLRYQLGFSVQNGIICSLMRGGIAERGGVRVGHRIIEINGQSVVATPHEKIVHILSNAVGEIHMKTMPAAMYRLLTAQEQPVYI
# T3: Mint1^Y549A/F610A C-terminal construct, amino acids 453-839 (rat, UniProt O35430 453-839, Y549A | F610A)
# T3 sequence (looked up): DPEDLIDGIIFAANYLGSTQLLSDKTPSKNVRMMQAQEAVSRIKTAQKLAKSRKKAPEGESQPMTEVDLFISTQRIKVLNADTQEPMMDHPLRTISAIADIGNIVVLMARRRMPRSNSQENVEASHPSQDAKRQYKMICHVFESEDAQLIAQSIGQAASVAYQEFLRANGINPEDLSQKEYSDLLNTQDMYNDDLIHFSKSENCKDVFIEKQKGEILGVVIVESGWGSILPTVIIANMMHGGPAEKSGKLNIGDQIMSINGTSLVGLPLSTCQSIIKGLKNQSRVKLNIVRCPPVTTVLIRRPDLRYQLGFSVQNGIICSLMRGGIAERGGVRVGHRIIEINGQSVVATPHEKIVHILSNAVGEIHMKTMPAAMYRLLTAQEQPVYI
# Experiments:
# Test in all cases: fluorescence polarisation
# TAMRA-PS1-10mer = target: TAMRA-PS1-10mer
# [1] = target: T1, Mint1^WT C-terminal construct, amino …
# [2] = target: T2, Mint1^Y633A C-terminal construct, amino …
# [3] = target: T3, Mint1^Y549A/F610A C-terminal construct, …
Binder,Kd (TAMRA-PS1-10mer),Kd [1],Kd [2],Kd [3]
"Mint1^Y633A C-terminal construct, amino acids 453-839 (domain or fragment) DPEDLIDGIIFAANYLGSTQLLSDKTPSKNVRMMQAQEAVSRIKTAQKLAKSRKKAPEGESQPMTEVDLFISTQRIKVLNADTQEPMMDHPLRTISYIADIGNIVVLMARRRMPRSNSQENVEASHPSQDAKRQYKMICHVFESEDAQLIAQSIGQAFSVAYQEFLRANGINPEDLSQKEASDLLNTQDMYNDDLIHFSKSENCKDVFIEKQKGEILGVVIVESGWGSILPTVIIANMMHGGPAEKSGKLNIGDQIMSINGTSLVGLPLSTCQSIIKGLKNQSRVKLNIVRCPPVTTVLIRRPDLRYQLGFSVQNGIICSLMRGGIAERGGVRVGHRIIEINGQSVVATPHEKIVHILSNAVGEIHMKTMPAAMYRLLTAQEQPVYI",139 µM,,,
"Mint1^Y549A/F610A C-terminal construct, amino acids 453-839 (domain or fragment) DPEDLIDGIIFAANYLGSTQLLSDKTPSKNVRMMQAQEAVSRIKTAQKLAKSRKKAPEGESQPMTEVDLFISTQRIKVLNADTQEPMMDHPLRTISAIADIGNIVVLMARRRMPRSNSQENVEASHPSQDAKRQYKMICHVFESEDAQLIAQSIGQAASVAYQEFLRANGINPEDLSQKEYSDLLNTQDMYNDDLIHFSKSENCKDVFIEKQKGEILGVVIVESGWGSILPTVIIANMMHGGPAEKSGKLNIGDQIMSINGTSLVGLPLSTCQSIIKGLKNQSRVKLNIVRCPPVTTVLIRRPDLRYQLGFSVQNGIICSLMRGGIAERGGVRVGHRIIEINGQSVVATPHEKIVHILSNAVGEIHMKTMPAAMYRLLTAQEQPVYI",301 µM,,,
"Mint1^WT C-terminal construct, amino acids 453-839 (domain or fragment) DPEDLIDGIIFAANYLGSTQLLSDKTPSKNVRMMQAQEAVSRIKTAQKLAKSRKKAPEGESQPMTEVDLFISTQRIKVLNADTQEPMMDHPLRTISYIADIGNIVVLMARRRMPRSNSQENVEASHPSQDAKRQYKMICHVFESEDAQLIAQSIGQAFSVAYQEFLRANGINPEDLSQKEYSDLLNTQDMYNDDLIHFSKSENCKDVFIEKQKGEILGVVIVESGWGSILPTVIIANMMHGGPAEKSGKLNIGDQIMSINGTSLVGLPLSTCQSIIKGLKNQSRVKLNIVRCPPVTTVLIRRPDLRYQLGFSVQNGIICSLMRGGIAERGGVRVGHRIIEINGQSVVATPHEKIVHILSNAVGEIHMKTMPAAMYRLLTAQEQPVYI",358 µM,,,

# Results, then the binder that gave them:
Kd (TAMRA-PS1-10mer),Kd [1],Kd [2],Kd [3],Binder
,282 ± 8.3 µM,14.5 ± 0.74 µM,382 ± 12.5 µM,{TAMRA}-NNGQNGYENPTYKFFEQMQN [TAMRA-APP17-mer]
,619 ± 57.9 µM,,1460 ± 25.2 µM,{TAMRA}-NNGLSSGGRARHSYHHPDQDHWC [TAMRA-VGCC2.2-20mer]

# — PMC10529462 (Brain research, 2023)
